This is an account of results in PMC8233664, “CAR T cells targeting tumor-associated exons of glypican 2 regress neuroblastoma in mice” (Cell Reports Medicine, 2021).

Assay [1] concerns the target cell surface GPC2 on neuroblastoma cells (Homo sapiens, UniProt Q8N158). The assay is described as follows: cell-based or functional assay.
Assay [2] concerns the target human GPC2 stably overexpressed on G10 (A431) and F8 (IMR5) cells (Homo sapiens, UniProt Q8N158). The assay is described as follows: cell-based or functional assay.
For assay [3], the target named is T1, recombinant human GPC2 protein (Homo sapiens, UniProt Q8N158).
T1 construct: human glypican 2 (GPC2), recombinant protein from R&D Systems; also called human glypican 2; His-tagged GPC2 protein; source: bought: R&D Systems
The assay is described as follows: BLI; Octet RED96; His-tagged GPC2 immobilised on Ni-NTA biosensors; association 600 s, dissociation 1800 s. Conditions: both partners purified.

For a further assay, the target named is T2, GPC2 exon 3 peptide 10 (Homo sapiens).
T2 construct: human glypican 2, 18-residue peptide no; 10 of the overlapping library (9 residues overlap), in exon 3; source: synthetic peptide (Genscript)
T2 chain: RKFDEFFLEMLSVAQHSL
The assay is described as follows: ELISA; single 18-residue peptides at 5 μg/ml in PBS coated overnight; 1 μg/ml CT3; detected with goat anti-mouse IgG-HRP. Conditions: both partners purified. For orientation: An ELISA detects its analyte on a solid surface through an enzyme-linked reagent.

The target in the next assay is T3, GPC2 exon 3 peptide 11 (Homo sapiens).
T3 construct: human glypican 2, 18-residue peptide no; 11 of the overlapping library (9 residues overlap), in exon 3; source: synthetic peptide (Genscript)
T3 chain: MLSVAQHSLTQLFSHSYG
The assay is described as above. The note with it: both partners purified.

The target in a further assay is T4, GPC2 exon 3 peptide 12 (Homo sapiens).
T4 construct: human glypican 2, 18-residue peptide no; 12 of the overlapping library (9 residues overlap), in exon 3; source: synthetic peptide (Genscript)
T4 chain: TQLFSHSYGRLYAQHALI
The description is as above. The note with it: both partners purified.

For another assay, the target named is T5, GPC2 exon 3 peptide 13 (Homo sapiens).
T5 construct: human glypican 2, 18-residue peptide no; 13 of the overlapping library (9 residues overlap), in exon 3; source: synthetic peptide (Genscript)
T5 chain: RLYAQHALIFNGLFSRLR
The description is as above. Conditions: both partners purified.

A further assay has as its target T6, GPC2 exon 3 peptide 14 (Homo sapiens).
T6 construct: human glypican 2, 18-residue peptide no; 14 of the overlapping library (9 residues overlap), in exon 3; source: synthetic peptide (Genscript)
T6 chain: FNGLFSRLRDFYGESGEG
Described as above. Conditions: both partners purified.

For the next assay, the target named is T7, GPC2 exon 3 peptide 15 (Homo sapiens).
T7 construct: human glypican 2, 18-residue peptide no; 15 of the overlapping library (9 residues overlap), in exon 3; source: synthetic peptide (Genscript)
T7 chain: DFYGESGEGLDDTLADFW
The assay is described as above. The note with it: both partners purified.

For the next assay, the target named is T8, GPC2 exon 3 peptide 16 (Homo sapiens).
T8 construct: human glypican 2, 18-residue peptide no; 16 of the overlapping library (9 residues overlap), in exon 3; source: synthetic peptide (Genscript)
T8 chain: LDDTLADFWAQLLERVFP
Described as above. Conditions: both partners purified.

The next assay has as its target T9, GPC2 exon 3 peptide 17 (Homo sapiens).
T9 construct: human glypican 2, 18-residue peptide no; 17 of the overlapping library (9 residues overlap), in exon 3; source: synthetic peptide (Genscript)
T9 chain: AQLLERVFPLLHPQYSFP
The assay is described as above. The note with it: both partners purified.

Another assay has as its target T10, GPC2 exon 3 peptide 18 (Homo sapiens).
T10 construct: human glypican 2, 18-residue peptide no; 18 of the overlapping library (9 residues overlap), in exon 3; source: synthetic peptide (Genscript)
T10 chain: LLHPQYSFPPDYLLCLSR
Described as above. Conditions: both partners purified.

The next assay deals with T11, GPC2 exon 3 peptide 19 (Homo sapiens).
T11 construct: human glypican 2, 18-residue peptide no; 19 of the overlapping library (9 residues overlap), in exon 3; source: synthetic peptide (Genscript)
T11 chain: PDYLLCLSRLASSTDGSL
The assay is described as above. Conditions: both partners purified.

In the next assay the target is T12, GPC2 exon 3 peptide 20 (Homo sapiens).
T12 construct: human glypican 2, 18-residue peptide no; 20 of the overlapping library (9 residues overlap), in exon 3; source: synthetic peptide (Genscript)
T12 chain: LASSTDGSLQPFGDSPRR
The assay is described as above. Conditions: both partners purified.

For a further assay, the target named is T13, GPC2 exon 3 peptide 21 (Homo sapiens).
T13 construct: human glypican 2, 18-residue peptide no; 21 of the overlapping library (9 residues overlap), in exon 3; source: synthetic peptide (Genscript)
T13 chain: QPFGDSPRRLRLQITRTL
The assay is described as above. Conditions: both partners purified.

Assay [4] addresses T14, recombinant human GPC5 protein (Homo sapiens, UniProt P78333).
T14 construct: human glypican 5, recombinant protein from R&D Systems; source: bought: R&D Systems
The assay can be described thus: ELISA; CT3 at 1 μg/ml on human GPC1 through GPC6 and mouse GPC2 proteins (R&D Systems) and GPC2 exon 3-hFc; detected with goat anti-mouse IgG-HRP. The note with it: both partners purified.

In assay [5] the target is T15, recombinant human GPC6 protein (Homo sapiens, UniProt Q9Y625).
T15 construct: human glypican 6, recombinant protein from R&D Systems; source: bought: R&D Systems
The assay is described as above. The note with it: both partners purified.

Assay [6] deals with T16, human GPC2 exon3-hFc protein (Homo sapiens).
T16 construct: human glypican 2, the stretch encoded by exon 3 (of transcript GPC2-201); also called recombinant exon 3 fragment of GPC2; exon 3 of GPC2; source: cloned into the pVRC8400 expression plasmid
T16 chain: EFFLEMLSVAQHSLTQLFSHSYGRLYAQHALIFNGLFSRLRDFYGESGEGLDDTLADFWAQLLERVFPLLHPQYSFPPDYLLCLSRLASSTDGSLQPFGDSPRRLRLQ
The assay is described as above. Conditions: both partners purified.

Assay [7] has as its target T17, recombinant human GPC4 protein (Homo sapiens, UniProt O75487).
T17 construct: human glypican 4, recombinant protein from R&D Systems; source: bought: R&D Systems
Described as above. Conditions: both partners purified.

Assay [8] deals with T18, recombinant human GPC1 protein (Homo sapiens, UniProt P35052).
T18 construct: human glypican 1, recombinant protein from R&D Systems; source: bought: R&D Systems
The assay is described as follows: ELISA; plates coated with recombinant human GPC2, GPC1 and GPC3; mouse hybridoma supernatant containing 1 μg/ml of each mAb; detected with goat anti-mouse IgG-HRP. Conditions: one partner purified.

Assay [9] deals with T19, recombinant human GPC3 protein (Homo sapiens, UniProt P51654).
T19 construct: human glypican 3, recombinant protein from R&D Systems; source: bought: R&D Systems
Described as above. The note with it: one partner purified.

cell surface GPC2 on neuroblastoma cells, sequence (Q8N158 24-554): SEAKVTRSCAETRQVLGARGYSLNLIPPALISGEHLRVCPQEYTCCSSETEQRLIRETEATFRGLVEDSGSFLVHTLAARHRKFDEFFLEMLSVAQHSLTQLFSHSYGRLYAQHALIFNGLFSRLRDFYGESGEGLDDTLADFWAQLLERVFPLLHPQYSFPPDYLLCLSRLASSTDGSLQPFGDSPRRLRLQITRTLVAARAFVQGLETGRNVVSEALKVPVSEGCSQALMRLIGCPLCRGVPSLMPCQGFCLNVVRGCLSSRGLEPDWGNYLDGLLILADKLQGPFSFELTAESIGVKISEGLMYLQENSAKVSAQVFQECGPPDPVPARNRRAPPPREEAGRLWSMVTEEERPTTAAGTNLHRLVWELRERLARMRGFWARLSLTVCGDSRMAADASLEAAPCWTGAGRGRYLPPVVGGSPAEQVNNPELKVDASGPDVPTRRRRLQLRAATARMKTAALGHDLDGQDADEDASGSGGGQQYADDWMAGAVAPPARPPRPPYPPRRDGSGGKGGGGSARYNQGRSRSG
T19 sequence (P51654 25-580): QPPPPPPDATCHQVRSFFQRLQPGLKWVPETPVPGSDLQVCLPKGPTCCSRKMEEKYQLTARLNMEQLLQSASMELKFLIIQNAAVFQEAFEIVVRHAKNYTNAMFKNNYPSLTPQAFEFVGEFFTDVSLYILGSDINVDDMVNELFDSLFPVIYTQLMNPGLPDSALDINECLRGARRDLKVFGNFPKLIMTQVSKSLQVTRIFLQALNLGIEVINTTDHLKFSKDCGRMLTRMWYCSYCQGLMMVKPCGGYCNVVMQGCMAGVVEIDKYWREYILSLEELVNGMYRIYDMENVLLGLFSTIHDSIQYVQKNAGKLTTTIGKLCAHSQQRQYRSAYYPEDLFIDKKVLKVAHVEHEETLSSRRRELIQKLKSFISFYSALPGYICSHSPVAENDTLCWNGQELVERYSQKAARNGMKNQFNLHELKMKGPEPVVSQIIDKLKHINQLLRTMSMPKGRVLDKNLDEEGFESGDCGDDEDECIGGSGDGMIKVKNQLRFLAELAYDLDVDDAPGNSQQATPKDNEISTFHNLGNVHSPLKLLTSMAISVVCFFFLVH
T17 sequence (O75487 19-529): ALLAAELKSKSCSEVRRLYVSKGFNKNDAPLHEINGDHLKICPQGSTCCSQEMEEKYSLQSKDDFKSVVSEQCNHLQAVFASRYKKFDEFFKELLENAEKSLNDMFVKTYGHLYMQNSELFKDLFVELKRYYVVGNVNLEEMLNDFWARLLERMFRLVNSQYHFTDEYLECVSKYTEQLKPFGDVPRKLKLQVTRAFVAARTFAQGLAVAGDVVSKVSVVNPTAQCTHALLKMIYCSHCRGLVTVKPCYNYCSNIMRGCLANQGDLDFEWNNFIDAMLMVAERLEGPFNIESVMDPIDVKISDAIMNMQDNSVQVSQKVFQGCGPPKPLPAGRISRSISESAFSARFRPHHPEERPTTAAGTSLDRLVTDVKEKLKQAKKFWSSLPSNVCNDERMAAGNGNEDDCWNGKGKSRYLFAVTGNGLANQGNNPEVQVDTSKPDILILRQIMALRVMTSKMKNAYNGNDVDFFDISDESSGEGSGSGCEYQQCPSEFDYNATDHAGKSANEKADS
T14 sequence (P78333 25-572): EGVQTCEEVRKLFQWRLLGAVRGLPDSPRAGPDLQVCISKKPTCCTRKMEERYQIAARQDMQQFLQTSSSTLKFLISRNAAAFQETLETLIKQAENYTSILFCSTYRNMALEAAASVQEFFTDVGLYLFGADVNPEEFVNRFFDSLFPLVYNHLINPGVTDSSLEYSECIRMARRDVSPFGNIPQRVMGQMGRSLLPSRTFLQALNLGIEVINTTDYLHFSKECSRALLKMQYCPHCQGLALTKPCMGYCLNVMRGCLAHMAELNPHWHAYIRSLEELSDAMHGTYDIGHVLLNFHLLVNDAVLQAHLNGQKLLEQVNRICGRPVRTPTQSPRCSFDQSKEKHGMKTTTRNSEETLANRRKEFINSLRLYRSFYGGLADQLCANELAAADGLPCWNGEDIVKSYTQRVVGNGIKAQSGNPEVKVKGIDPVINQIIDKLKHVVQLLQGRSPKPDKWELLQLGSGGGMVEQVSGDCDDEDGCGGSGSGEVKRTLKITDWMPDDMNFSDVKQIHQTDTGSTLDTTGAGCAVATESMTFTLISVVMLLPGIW
human GPC2 stably overexpressed on G10 (A431) and F8 (IMR5) cells, sequence (Q8N158 24-554): as the sequence (Q8N158 24-554) above
T1 sequence (Q8N158 24-554): as above
T18 sequence (P35052 24-530): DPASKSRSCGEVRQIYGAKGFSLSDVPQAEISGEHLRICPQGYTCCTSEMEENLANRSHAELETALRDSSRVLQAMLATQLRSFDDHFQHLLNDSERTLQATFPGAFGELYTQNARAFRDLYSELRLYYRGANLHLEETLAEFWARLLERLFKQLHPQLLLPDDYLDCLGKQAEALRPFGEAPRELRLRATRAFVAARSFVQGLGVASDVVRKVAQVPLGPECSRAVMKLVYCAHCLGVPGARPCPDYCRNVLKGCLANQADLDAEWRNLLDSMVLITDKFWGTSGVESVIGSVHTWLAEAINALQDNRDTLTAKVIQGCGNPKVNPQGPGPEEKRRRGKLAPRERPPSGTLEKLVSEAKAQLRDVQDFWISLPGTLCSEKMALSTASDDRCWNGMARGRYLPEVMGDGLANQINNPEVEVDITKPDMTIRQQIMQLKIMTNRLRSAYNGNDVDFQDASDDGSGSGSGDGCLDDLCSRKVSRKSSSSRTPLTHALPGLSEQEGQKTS
T15 sequence (Q9Y625 24-529): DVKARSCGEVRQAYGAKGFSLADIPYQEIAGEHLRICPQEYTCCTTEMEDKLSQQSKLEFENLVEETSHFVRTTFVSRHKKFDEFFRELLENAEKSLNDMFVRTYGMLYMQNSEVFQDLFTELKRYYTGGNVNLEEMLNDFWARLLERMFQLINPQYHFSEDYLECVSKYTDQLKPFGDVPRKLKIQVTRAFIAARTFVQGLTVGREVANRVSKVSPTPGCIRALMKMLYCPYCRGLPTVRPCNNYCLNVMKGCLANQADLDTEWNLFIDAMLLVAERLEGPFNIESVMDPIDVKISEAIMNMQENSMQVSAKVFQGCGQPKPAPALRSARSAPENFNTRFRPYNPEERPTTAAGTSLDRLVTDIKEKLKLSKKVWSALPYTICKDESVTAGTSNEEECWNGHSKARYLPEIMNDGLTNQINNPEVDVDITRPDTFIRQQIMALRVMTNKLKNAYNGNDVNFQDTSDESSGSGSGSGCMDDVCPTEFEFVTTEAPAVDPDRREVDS

B1: CT3 monoclonal antibody (antibody, V domains shown)
VH: EVQLQQSGPELVKPGASVKMSCKASRFTFTDYNIHWVKQSPGKTLEWIGYINPNNGDIFYKQKFNGKATLTINKSSNTAYMELRSLTSEDSAVYYCVRSSNIRYTFDRFFDVWGTGTTVTVSS
VL: ENVLTQSPAIMSASLGEKVTMSCRASSSVNYIYWYQQKSDASPKLWIYYTSNLAPGVPARFSGSGSGNSYSLTISSMEGEDAATYYCQQFSSSPSTFGTGTKLELK
notes: variable regions were cloned by 5'RACE; EM maps of the CT3 Fab/GPC2 complex deposited at wwPDB (deposition ID D_1000256119); Mouse mAb raised against the 50-residue C-terminal (exon 10) peptide of GPC2; also called CT3 mAb; source: mouse hybridoma (parental clone 2); hybridoma supernatant and purified mAb
With B1, the “cytotoxicity of CT3 CAR T cells (CT3 as scFv in a CAR with CD8α hinge) on NBEB cells, xCELLigence real-time analysis, E:T ratio 1:1, 25 h” value in assay [1] is 74%. In addition, the “cytotoxicity of CT3 CAR T cells (CT3 as scFv in a CAR with CD8α hinge) on SKNAS cells, xCELLigence real-time analysis, E:T ratio 1:1, 25 h” value in assay [1] is 43%. In assay [1], the “lysis of NB PDX-derived cells by CT3 CAR T cells (CT3 as scFv in a 4-1BB CAR), luciferase-based killing assay, E:T ratio 25:1, 24 to 72 h of co-culture” value amounted to 80%. Besides, in assay [2], the “lysis of G10 and F8 cells (high GPC2) by CT3 CAR T cells (CT3 as scFv in a 4-1BB CAR), luciferase-based killing assay, 24 h, E:T ratio 3:1” value was approximately 70%. For the same molecule, the dissociation constant (Kd) in assay [3] is 0.5 nM. For the same molecule, the binding result in the assay with GPC2 exon 3 peptide 10, with GPC2 exon 3 peptide 11, with GPC2 exon 3 peptide 12, with GPC2 exon 3 peptide 13, in the assay with GPC2 exon 3 peptide 14 and with GPC2 exon 3 peptide 15 was “no binding (tested: 1 μg/ml of CT3)” each time. Also, the binding result with GPC2 exon 3 peptide 16, with GPC2 exon 3 peptide 17, with GPC2 exon 3 peptide 18, with GPC2 exon 3 peptide 19, with GPC2 exon 3 peptide 20 and with GPC2 exon 3 peptide 21 was “no binding (tested: 1 μg/ml of CT3)” throughout. In addition, the binding result in assay [4] was “no binding (tested: 1 μg/mL of CT3)”; in assay [5], “no binding (tested: 1 μg/mL of CT3)”; in [6] it was “binds”; in assay [7], “no binding (tested: 1 μg/mL of CT3)”; in assay [8], “no binding (tested: 1 μg/ml of each mAb)”; in assay [9] it was “no binding (tested: 1 μg/ml of each mAb)”.

The Kd is the constant that tells how readily two partners part at equilibrium.
